# Columns and labels:
# DPEP-1 = settings: cited from earlier work
# [1] = target: T1, human membrane dipeptidase (DPEP-1) (Homo sapiens, UniProt P16444); assay: Membrane dipeptidase enzyme activity assay, fluorimetric detection of D-Phe from Gly-D-Phe; assay type: biochemical; settings: protein from human DPEP-1 transfected Cos-1 cells; Gly-D-Phe substrate, 37° C., 3 hours
# T1 construct: expressed in transfected cells; host or cells: Cos-1 (protein lysate, octylglucoside)
# T1 sequence (P16444 17-385): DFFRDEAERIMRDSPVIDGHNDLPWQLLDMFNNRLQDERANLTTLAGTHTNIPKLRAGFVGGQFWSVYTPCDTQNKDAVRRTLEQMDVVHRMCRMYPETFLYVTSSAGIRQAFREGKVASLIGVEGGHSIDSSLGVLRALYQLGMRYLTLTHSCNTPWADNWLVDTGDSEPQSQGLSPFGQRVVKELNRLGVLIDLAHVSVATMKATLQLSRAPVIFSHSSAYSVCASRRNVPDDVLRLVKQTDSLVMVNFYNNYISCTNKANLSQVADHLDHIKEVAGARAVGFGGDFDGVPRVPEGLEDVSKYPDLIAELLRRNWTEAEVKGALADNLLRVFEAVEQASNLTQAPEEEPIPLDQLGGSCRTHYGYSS
# Experimental: Cos-1 cells were transiently transfected with […] of human membrane dipeptidase (DPEP-1) plasmid using lipofectamine 2000 (Invitrogen) reagent. 48 hours after transfection, media was removed and cells were washed with PBS. Proteins were isolated using octylglucoside in the absence of protease inhibitors. Membrane dipeptidase assay and the fluorimetric detection of D-Phe was performed exactly as described by Heywood and Hooper previously. In brief, proteins were first incubated with membrane dipeptidase substrate Gly-D-Phe either in the presence or absence of LSALT or GFE-1 peptide at 37° C. for 3 hours. The fluorescence signal generated from the conversion of D-Phe to […] in the presence of D-aminoacidoxidase and peroxidase was measured using a fluorescence plate reader.
# tumor cell line = assay: Tumor burden in livers or lungs of animals injected with a tumor cell line; assay type: in vivo
# [2] = system: serum cytokines in response to LPS; assay: Plasma cytokine levels after LPS, Luminex Cytokine Arrays; assay type: in vivo, SCID mice; settings: LPS 0.5 mg/kg intraperitoneal 5 minutes prior to intravenous peptide; plasma at 4 hours
# Experimental: 6-8 weeks old SCID mice were given an intraperitoneal injection of LPS (0.5 mg/kg) 5 minutes prior to intravenous injection of LSALT peptide or a control peptide. 4 hours following injection of LPS, blood was collected by cardiac puncture and changes in plasma cytokine levels were assessed using Luminex Cytokine Arrays. Bar graphs show the levels of different inflammatory mediators released in the plasma in the presence or absence of LSALT peptide and control peptide.
# 6-8 weeks old SCID mice were given an intraperitoneal injection of LPS (0.5 mg/kg) 5 minutes prior to intravenous injection of LSALT peptide or a control peptide. 4 hours following injection of LPS, blood was collected by cardiac puncture and changes in plasma cytokine levels were assessed using Luminex Cytokine Arrays. Bar graphs show the level of the anti-inflammatory cytokine IL-10 released in the plasma in LSALT peptide or control peptide in two independent experiments.
# Human DPEP-3 = target: T2, Human DPEP-3 (Homo sapiens, UniProt Q9H4B8); assay: Binding of Alexa-488 conjugated peptide to Cos-1 cells transfected with human DPEP3
# T2 construct: expressed in transfected cells; host or cells: Cos-1
# T2 sequence (Q9H4B8 36-463): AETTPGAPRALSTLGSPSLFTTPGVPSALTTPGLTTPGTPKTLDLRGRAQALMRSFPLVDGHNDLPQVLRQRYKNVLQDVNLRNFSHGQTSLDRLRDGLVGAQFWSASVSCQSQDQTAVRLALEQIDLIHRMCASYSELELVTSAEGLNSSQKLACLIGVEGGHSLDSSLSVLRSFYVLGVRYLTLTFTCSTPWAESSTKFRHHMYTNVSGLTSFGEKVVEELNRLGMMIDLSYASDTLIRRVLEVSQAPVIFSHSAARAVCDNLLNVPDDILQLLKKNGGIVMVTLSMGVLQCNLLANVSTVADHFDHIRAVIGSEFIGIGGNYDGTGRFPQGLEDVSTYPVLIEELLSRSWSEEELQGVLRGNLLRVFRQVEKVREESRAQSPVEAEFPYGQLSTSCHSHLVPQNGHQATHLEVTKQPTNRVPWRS
# Experimental: (§1) Cos-1 cells were transiently transfected with either […] of human DPEP-1, DPEP2, or DPEP3 gene using lipofectamine 2000 (Invitrogen) reagent in OptiMEM medium. 24 hours after transfection, DPEP-1, DPEP2, or DPEP3 expressing cells were re-seeded on collagen coated (neutralized) wells in 24 well plates and allowed to grow for 24 hours at 37º° C. 24 hours after seeding, media was removed and cells were washed with PBS. Cells were blocked with FBS/NBSA/Tween in PBS for 30 minutes on ice. Cells were then washed with PBS and incubated with LSALT or GFE-1, conjugated with Alexa-488 (green). After incubation, cells were washed with PBS and stained with DAPI for 5 minutes on ice. Cells were then washed with PBS and fixed using 4% paraformaldehyde and immunofluorescence microscopy was performed to assess binding. Representative photomicrographs are shown for each experimental condition (n=3) in FIG. 6A. Proteins from DPEP-1. DPEP2 and DPEP3 transfected cells were isolated after 48 hours using octyl-glucoside/RIPA lysis buffer and western blot analysis was performed to assess DPEP-1, DPEP2 and DPEP3 protein expression using specific antibodies; DPEP-1 antibody (Sigma), DPEP2 (Abcam) and DPEP3 (Santacruz). Blots were stripped and reprobed with an anti-P-actin.
# Human DPEP2 = target: T3, Human DPEP2 (Homo sapiens, UniProt Q9H4A9); assay: Binding of Alexa-488 conjugated peptide to Cos-1 cells transfected with human DPEP2
# T3 construct: expressed in transfected cells; host or cells: Cos-1
# Experimental: as §1
# human DPEP-1 = target: T4, human DPEP-1 (Homo sapiens, UniProt P16444); assay: Binding of Alexa-488 conjugated peptide to Cos-1 cells transfected with human DPEP-1 (immunofluorescence, biotin transfer); settings: Cos-1 cells transiently transfected with human DPEP-1 cDNA, 30 minutes on ice
# T4 construct: expressed in transfected cells; host or cells: Cos-1
# T4 sequence (P16444 17-385): T1 sequence (P16444 17-385)
# Experimental: (§2) Cos-1 cells were transiently transfected with either 3 or 5|ig of membrane dipeptidase (DPEP-1) cDNA corresponding to the rat (Shown in FIG. 5A) or human DPEP-1 (Shown in FIG. 5B) gene using lipofectamine 2000 (Invitrogen) reagent in OptiMEM medium 24 hours after transfection, DPEP-1 expressing cells were re-seeded on collagen coated (neutralized) wells in 24 well plates and allowed to grow for 24 hours at 37 °C. 24 hours after seeding, media was removed and cells were washed with PBS. Cells were blocked with FBS/NBSA/Tween in PBS for 30 minutes on ice. Cells were then washed with PBS and incubated with Alexa-488 (green) conjugated LSALT, GFE-1, control peptide or DPEP-1 antibody (1/100) (Sigma) on ice for 30 minutes. […] After incubation, cells were washed with PBS and treated with 10 mg/ml biotin transfer peptide (LSALT, GFE-1 or Control Peptide (KGAL)] for 10 minutes. Cells were then washed with PBS and biotin transfer was enabled by UV activation of the aryl azide groups for 15 minutes at 363 nm. Residual fluid was removed and monolayers were lysed either with octyl-glucoside/RIPA or 8M urea. Isolated supernatants were rotated with […] of neutr-avidin agarose beads at 4° C. for 24 hours. Beads were washed with corresponding buffers, boiled in Laemmli buffer and analyzed by western blot using a DPEP-1 specific antibody (Proteintech).
# [3] = target: T5, renal rat membrane dipeptidase (DPEP-1) (Rattus norvegicus, UniProt P31430); assay: Peptide binding to Cos-7 cells transfected with rat DPEP-1, flow cytometry; settings: rat DPEP-1 transfected Cos-7 cells; Alexa-488 conjugated peptide on ice 30 minutes
# T5 construct: expressed in transfected cells; host or cells: Cos-7
# Experimental: Cos-7 cells were transiently transfected with 5∧g of renal rat membrane dipeptidase (DPEP-1) plasmid using lipofectamine2000 (Invitrogen) reagent. 48 hours after transfection, cells were incubated with LSALT conjugated to Alexa-488 (green) on ice for 30 minutes. Cells were washed and flow cytometry was performed to assess binding Shown are single parameter histographs for each experimental condition (n=2).
# [4] = system: B16-F10 murine melanoma cells; assay: B16-F10 melanoma lung metastasis, syngeneic model; assay type: in vivo, C57-BL6 mice; settings: 1 mM peptide intravenous 5 minutes before 100,000 B16-F10 cells; lungs harvested after 2 weeks
# Experimental: 8-10 weeks old C57-BL6 mice (Charles River) were injected intravenously with 100,000 B16-F10 murine melanoma cells 5 minutes after the injection of either LSALT or GFE-1 peptide (1 mM) via intravenous tail injection. Animals were sacrificed after 2 weeks and lungs were harvested. Tissues were processed for histology as described before and bematoxylin-eosin staining was performed to assess tumor burden.
# [5] = system: neutrophil adhesion in the hepatic sinusoids; assay: Neutrophil adhesion in hepatic sinusoids after LPS, intravital microscopy; assay type: in vivo, LysMeGFP mice; settings: for neutrophil adhesion in the hepatic sinusoids in the presence of LPS: 1 mM peptide intravenous 5 minutes after 0.5 mg/kg LPS intraperitoneal, liver imaged after 3 hours
# Experimental: Six to ten week old LysMeGFP mice were injected with 1 mM dose of LSALT or GFE-1 peptides (intravenous) 5 minutes after the injection of 0.5 mg/kg of lipopolysaccharide (intraperitoneal). After 3 hours, animals were injected with ketamine and xylazine to provide general anesthesia. Fluorescently conjugated F4/80 and PECAM-1 antibodies were then administered via jugular vein cannulation and intravital spinning disk confocal microscopy was performed. The livers were imaged for an hour and the number of neutrophils were counted at different time points. Neutrophils which were stationary for >30 seconds in the liver sinusoids were counted as adherent cells. Data are representative of three independent experiments. An unpaired 2-tailed student's t-test was performed comparing LSALT, GFE-1 or control treated group against the LPS treated group (*p<0.05).
# rat DPEP-1 = target: T6, rat DPEP-1 (Rattus norvegicus, UniProt P31430); assay: Binding of Alexa-488 conjugated peptide to Cos-1 cells transfected with rat DPEP-1 (immunofluorescence); settings: Cos-1 cells transiently transfected with rat DPEP-1 cDNA, 30 minutes on ice
# T6 construct: expressed in transfected cells; host or cells: Cos-1
# Experimental: as §2
# [6] = target: T5, renal rat membrane dipeptidase (DPEP-1); assay: Peptide binding to Cos-7 cells transfected with rat DPEP-1, immunofluorescence microscopy; settings: rat DPEP-1 transfected Cos-7 cells; fluorescently conjugated peptide on ice 30 minutes
# Experimental: Cos-7 cells were transiently transfected with […] of renal rat membrane dipeptidase (DPEP-1) plasmid using lipofectamine 2000 (Invitrogen) reagent. 48 hours after transfection, media was removed and cells were washed with PBS. Cells were incubated with LSALT conjugated with Alexa-488 (Green), GFE-1 peptide conjugated with Alexa-568 (Red) or control peptide conjugated with Alexa-488 (Green) on ice for 30 minutes. Cells were washed and fixed using 4% paraformaldehyde and immunofluorescence microscopy was performed to assess binding. Shown are representative photomicrographs of each experimental condition (n=2).
# T5 sequence (P31430 17-384): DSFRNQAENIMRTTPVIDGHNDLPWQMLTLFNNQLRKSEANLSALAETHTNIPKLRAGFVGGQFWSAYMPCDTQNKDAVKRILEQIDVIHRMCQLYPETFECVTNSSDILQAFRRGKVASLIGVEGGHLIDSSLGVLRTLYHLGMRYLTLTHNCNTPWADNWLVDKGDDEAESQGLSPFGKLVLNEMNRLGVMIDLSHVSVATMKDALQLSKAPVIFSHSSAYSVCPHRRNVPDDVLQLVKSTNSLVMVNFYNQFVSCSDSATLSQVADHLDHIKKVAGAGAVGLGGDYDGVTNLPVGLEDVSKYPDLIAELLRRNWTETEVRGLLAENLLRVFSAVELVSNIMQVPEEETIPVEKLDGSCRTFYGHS
# T3 sequence (Q9H4A9 33-463): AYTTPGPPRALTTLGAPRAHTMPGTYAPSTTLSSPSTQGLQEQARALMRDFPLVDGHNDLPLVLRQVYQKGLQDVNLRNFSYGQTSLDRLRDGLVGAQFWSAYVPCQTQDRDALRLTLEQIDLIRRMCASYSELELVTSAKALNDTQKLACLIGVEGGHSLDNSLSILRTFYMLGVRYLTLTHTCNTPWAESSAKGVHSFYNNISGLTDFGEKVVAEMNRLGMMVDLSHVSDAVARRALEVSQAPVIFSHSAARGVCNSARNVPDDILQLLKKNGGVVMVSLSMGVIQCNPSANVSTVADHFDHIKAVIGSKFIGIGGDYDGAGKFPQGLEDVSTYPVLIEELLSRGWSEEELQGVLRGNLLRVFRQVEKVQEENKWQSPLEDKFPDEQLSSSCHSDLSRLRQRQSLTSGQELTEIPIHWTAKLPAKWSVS
# T6 sequence (P31430 17-384): as the sequence (P31430 17-384) above
inhibition of membrane dipeptidase enzyme activity [1],binding to human DPEP-1 (human DPEP-1),binding to Cos-7 cells with expression of DPEP-1 (flow cytometry) [3],binding to rat DPEP-1 (rat DPEP-1),Sequence,DPEP-1 binding activity in lung microvasculature (DPEP-1),tumor burden in the livers or lungs (tumor cell line),levels of serum cytokines (inflammatory mediators) in response to LPS [2],production of the anti-inflammatory mediator IL-10 in response to LPS [2],binding to human DPEP-3 in vitro (Human DPEP-3),binding to human DPEP2 in vitro (Human DPEP2),melanoma-lung metastasis [4],neutrophil adhesion in the hepatic sinusoids in the presence of LPS [5],neutrophil recruitment to the liver ([5]; mouse model of sepsis),binding to Cos-7 cells with expression of DPEP-1 (immunofluorescence microscopy) [6]
–,–,–,–,CGFELETC (listed as Homo sapiens) [GFE-2],having DPEP-1 binding activity,–,–,–,–,–,–,–,–,–
does not inhibit,Bonds,enhanced the binding,Bonds,LSALTPSPSWLKYKAL (listed as Homo sapiens),–,dramatically reduce tumor burden,attenuates the levels,increases the production,do not Bind,do not Bind,Inhibits,inhibit neutrophil adhesion,reduced neutrophil recruitment,enhanced the binding
–,–,–,–,"CGFECVRQCPERC (listed as Homo sapiens) [GFE-1, reference compound]",having DPEP-1 binding activity,–,–,–,do not Bind,do not Bind,–,inhibit neutrophil adhesion,–,enhanced the binding
